Results: PMC4489214

Biological target: LRRTM2 expressed on K562 cells (mouse) (UniProt Q8BGA3)
Assay: cell adhesion assay; K562 'prey' cells (NRX1-alpha variant, beta-Gal, RFP) mixed with biotinylated K562 'bait' cells (LRRTM2 or NL3(A2), AP-GFP, BirA-ER) on neutravidin magnetic beads; 60 min at RT in DMEM without serum; bound cells read by beta-Gal activity

Chain of UniProt Q8BGA3 (Q8BGA3 34-515): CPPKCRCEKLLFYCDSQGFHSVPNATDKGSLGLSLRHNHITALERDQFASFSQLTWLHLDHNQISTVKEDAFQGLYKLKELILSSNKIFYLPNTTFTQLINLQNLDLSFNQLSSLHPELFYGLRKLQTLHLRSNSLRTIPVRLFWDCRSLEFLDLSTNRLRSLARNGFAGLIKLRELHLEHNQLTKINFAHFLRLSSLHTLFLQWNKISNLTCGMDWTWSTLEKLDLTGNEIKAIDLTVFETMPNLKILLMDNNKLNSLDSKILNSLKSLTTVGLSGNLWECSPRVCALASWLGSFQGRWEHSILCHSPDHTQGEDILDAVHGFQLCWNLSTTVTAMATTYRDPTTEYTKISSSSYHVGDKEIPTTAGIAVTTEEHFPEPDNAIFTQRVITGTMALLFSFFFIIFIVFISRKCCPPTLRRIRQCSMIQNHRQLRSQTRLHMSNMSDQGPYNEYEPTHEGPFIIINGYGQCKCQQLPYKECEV

fold increase of adhesion against the AS6+ isoforms	Substance
3 fold	NRX1alpha lacking the insertions at AS3 and AS6, expressed on K562 cells (from UniProt Q9CS84 31-1514) (receptor)
3 fold	NRX1alpha with the insertion at AS3 and lacking the insertion at AS6, expressed on K562 cells (from UniProt Q9CS84 31-1514) (receptor)
